Assay results taken from US20250262210A1 (TRUSTEES OF COLUMBIA UNIVERSITY IN THE CITY OF NEW YORK, published 2025).

Tests used:
Experiment in all cases: IP/MS, LZTR1 wild type-FLAG, U87
[1] = molecular target: DMXL2 (human, UniProt Q8TDJ6 1-3036, limits assumed)
Method in brief: (§1)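 Gel slices were reduced with 5 mM DTT, alkylated with 11 mM IAA and digested overnight at 37° C. with trypsin. Peptides were analysed on an Orbitrap Fusion Tribrid by LC-MS/MS.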

[2] = molecular target: THADA (human, UniProt Q6YHU6 1-1953, limits assumed)
Method in brief: as §1

[3] = molecular target: T1, USP47 (human, UniProt Q96K76 1-1375, limits assumed)
T1 sequence (looked up): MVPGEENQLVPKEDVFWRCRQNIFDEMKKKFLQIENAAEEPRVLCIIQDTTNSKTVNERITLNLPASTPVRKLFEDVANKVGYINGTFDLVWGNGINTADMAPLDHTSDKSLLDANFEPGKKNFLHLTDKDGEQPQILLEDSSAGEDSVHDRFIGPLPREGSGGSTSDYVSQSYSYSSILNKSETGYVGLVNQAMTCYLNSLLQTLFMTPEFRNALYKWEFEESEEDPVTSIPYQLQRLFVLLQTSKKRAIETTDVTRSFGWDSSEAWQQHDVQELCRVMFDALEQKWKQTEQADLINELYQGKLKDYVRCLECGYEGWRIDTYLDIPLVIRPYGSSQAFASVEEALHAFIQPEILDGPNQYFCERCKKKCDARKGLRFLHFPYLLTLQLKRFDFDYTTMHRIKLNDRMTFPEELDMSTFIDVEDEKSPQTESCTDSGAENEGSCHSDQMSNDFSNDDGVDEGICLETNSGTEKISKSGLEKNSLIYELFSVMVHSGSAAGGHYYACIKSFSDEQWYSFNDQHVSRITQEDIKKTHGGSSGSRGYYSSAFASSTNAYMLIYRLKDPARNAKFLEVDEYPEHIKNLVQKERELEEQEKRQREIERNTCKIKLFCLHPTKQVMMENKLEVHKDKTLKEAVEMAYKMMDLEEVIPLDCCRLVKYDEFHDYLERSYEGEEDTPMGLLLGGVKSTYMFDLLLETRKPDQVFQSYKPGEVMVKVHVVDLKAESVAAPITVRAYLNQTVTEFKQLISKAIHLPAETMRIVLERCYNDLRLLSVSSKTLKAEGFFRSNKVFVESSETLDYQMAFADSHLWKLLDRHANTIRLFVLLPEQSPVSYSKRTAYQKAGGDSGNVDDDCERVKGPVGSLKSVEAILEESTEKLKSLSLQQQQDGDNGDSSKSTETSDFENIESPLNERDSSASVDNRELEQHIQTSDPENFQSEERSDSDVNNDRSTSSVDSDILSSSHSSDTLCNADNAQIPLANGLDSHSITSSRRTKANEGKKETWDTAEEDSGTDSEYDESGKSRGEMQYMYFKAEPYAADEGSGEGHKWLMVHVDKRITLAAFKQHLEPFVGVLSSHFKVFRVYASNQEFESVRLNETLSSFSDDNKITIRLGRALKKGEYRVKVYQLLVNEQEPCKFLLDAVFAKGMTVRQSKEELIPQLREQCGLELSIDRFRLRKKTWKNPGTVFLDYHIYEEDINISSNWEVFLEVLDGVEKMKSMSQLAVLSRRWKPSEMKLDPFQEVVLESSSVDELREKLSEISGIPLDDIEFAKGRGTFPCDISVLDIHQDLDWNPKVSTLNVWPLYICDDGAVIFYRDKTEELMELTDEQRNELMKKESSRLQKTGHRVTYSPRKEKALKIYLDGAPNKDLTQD
Method in brief: as §1

Measured: binding result

Sequence of DMXL2 (Q8TDJ6 whole entry, the tested form may be a part): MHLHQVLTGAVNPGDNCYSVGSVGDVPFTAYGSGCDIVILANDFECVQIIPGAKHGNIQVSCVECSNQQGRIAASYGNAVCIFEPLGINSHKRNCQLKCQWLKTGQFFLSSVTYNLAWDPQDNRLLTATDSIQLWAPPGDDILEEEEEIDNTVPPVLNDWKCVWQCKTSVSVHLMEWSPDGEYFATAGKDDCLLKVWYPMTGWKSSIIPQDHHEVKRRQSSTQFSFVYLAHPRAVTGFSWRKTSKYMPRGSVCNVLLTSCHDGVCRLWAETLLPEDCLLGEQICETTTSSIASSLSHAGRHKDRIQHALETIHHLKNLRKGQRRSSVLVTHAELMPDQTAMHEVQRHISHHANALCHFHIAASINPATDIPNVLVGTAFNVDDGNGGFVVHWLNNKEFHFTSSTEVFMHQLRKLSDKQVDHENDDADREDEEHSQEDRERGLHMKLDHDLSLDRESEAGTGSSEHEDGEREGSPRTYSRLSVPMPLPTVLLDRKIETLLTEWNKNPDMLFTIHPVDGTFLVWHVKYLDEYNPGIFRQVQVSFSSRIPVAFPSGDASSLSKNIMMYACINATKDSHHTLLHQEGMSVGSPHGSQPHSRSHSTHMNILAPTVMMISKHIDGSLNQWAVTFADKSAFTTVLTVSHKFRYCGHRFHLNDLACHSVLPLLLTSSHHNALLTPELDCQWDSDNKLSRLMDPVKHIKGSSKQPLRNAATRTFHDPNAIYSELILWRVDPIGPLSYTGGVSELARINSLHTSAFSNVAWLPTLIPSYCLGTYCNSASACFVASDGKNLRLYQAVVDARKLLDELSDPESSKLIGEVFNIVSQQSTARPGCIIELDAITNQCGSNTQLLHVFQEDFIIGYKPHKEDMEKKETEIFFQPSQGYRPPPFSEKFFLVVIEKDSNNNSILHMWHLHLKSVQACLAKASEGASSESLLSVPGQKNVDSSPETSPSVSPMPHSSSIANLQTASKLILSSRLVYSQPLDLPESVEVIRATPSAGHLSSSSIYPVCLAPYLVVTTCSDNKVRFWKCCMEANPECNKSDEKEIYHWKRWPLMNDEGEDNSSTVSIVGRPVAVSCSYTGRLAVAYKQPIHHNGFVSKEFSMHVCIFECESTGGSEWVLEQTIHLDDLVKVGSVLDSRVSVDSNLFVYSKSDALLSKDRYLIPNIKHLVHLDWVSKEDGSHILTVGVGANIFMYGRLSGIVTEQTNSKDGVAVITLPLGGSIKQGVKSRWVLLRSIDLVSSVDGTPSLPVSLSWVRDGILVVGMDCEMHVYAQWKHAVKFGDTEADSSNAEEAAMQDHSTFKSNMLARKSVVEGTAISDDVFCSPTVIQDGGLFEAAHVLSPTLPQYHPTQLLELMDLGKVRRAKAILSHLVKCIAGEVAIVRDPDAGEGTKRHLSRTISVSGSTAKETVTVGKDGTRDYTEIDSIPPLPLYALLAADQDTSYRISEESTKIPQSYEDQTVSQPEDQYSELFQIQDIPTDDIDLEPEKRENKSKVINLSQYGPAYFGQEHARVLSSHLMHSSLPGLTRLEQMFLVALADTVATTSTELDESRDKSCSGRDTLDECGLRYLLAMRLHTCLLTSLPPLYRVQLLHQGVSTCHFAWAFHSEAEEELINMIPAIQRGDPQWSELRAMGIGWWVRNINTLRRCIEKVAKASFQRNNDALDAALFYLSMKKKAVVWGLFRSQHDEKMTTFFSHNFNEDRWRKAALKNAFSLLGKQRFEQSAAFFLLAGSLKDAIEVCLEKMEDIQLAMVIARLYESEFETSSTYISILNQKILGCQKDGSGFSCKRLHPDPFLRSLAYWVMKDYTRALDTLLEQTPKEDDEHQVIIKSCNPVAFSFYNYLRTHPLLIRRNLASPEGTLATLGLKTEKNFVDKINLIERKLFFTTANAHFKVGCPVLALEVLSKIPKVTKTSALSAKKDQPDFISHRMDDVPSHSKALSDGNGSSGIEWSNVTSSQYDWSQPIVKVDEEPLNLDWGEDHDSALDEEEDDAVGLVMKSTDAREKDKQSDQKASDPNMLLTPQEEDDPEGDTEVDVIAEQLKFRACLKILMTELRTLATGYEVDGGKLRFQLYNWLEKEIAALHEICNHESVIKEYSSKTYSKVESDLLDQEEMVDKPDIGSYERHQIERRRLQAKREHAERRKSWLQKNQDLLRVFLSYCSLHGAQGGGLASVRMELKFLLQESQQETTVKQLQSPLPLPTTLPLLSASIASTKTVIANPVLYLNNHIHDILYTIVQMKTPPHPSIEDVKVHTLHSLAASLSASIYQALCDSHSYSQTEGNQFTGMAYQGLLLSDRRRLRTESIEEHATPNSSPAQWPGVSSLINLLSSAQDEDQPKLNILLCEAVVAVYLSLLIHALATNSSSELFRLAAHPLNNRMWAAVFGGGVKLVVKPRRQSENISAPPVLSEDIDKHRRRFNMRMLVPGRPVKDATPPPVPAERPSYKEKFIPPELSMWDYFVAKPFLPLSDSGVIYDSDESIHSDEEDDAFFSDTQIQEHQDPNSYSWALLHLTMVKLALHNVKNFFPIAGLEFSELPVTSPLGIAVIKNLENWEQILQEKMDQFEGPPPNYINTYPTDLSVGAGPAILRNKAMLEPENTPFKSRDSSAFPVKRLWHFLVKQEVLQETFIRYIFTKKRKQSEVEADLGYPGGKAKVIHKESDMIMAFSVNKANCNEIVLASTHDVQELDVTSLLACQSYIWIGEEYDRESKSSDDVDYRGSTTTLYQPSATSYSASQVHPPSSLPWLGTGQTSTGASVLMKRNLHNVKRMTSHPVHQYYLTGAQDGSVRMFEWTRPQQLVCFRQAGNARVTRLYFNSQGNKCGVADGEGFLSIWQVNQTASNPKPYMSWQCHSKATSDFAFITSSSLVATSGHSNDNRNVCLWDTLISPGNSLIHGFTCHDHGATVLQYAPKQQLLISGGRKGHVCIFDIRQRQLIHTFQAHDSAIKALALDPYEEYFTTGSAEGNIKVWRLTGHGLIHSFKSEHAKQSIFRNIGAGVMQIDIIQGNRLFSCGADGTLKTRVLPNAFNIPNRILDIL
Sequence of THADA (Q6YHU6 whole entry): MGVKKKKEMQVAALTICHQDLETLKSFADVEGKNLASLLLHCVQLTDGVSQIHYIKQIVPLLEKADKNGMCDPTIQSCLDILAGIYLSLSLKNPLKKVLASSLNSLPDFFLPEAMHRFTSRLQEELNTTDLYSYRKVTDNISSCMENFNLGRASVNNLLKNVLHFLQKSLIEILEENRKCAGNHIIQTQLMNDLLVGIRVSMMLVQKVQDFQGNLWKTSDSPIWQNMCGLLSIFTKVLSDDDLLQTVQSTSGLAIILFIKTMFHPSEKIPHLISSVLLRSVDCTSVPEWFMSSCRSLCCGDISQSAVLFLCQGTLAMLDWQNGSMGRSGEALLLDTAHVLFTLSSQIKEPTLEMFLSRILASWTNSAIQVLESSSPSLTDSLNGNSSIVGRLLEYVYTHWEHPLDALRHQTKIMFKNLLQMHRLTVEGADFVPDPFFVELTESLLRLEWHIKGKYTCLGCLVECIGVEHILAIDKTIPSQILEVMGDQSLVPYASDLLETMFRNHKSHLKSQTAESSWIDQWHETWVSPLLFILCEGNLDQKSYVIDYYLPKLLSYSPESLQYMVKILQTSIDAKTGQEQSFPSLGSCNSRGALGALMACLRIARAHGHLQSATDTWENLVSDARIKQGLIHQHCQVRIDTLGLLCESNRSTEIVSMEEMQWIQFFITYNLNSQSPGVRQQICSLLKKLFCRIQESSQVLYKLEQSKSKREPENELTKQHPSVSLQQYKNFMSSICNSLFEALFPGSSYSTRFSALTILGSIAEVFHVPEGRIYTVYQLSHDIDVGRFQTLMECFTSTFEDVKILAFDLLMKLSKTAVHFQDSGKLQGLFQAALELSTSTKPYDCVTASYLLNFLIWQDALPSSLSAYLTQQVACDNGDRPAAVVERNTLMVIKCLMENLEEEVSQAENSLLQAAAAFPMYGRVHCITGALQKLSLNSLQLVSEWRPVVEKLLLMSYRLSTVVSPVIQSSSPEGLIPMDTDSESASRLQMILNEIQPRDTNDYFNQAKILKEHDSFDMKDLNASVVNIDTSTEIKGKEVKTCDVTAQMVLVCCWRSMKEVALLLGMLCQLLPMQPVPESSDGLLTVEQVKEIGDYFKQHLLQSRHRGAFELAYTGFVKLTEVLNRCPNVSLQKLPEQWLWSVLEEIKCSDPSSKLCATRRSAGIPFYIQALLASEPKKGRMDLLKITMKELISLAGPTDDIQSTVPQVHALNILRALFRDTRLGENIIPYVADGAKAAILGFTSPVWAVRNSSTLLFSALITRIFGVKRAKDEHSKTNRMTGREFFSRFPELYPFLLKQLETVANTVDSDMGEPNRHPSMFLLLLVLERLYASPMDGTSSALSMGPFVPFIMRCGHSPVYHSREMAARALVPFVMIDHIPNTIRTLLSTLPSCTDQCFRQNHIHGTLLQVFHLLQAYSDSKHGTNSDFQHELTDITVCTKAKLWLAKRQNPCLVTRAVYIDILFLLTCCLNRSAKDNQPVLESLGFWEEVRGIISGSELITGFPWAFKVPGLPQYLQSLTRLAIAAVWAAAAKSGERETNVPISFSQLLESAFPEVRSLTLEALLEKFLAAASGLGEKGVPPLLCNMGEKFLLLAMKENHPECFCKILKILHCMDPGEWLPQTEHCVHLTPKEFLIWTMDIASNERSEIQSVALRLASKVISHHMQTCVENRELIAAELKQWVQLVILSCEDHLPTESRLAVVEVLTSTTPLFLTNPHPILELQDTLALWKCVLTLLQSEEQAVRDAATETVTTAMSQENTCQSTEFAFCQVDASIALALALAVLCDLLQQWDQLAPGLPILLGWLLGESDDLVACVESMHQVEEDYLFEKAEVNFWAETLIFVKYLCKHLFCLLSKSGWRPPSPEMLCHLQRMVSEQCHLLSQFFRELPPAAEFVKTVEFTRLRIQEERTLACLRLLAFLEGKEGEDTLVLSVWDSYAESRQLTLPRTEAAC

B1: LZTR1-FLAG (other, human, UniProt Q8N653 1-840, looked up)
chain: MAGPGSTGGQIGAAALAGGARSKVAPSVDFDHSCSDSVEYLTLNFGPFETVHRWRRLPPCDEFVGARRSKHTVVAYKDAIYVFGGDNGKTMLNDLLRFDVKDCSWCRAFTTGTPPAPRYHHSAVVYGSSMFVFGGYTGDIYSNSNLKNKNDLFEYKFATGQWTEWKIEGRLPVARSAHGATVYSDKLWIFAGYDGNARLNDMWTIGLQDRELTCWEEVAQSGEIPPSCCNFPVAVCRDKMFVFSGQSGAKITNNLFQFEFKDKTWTRIPTEHLLRGSPPPPQRRYGHTMVAFDRHLYVFGGAADNTLPNELHCYDVDFQTWEVVQPSSDSEVGGAEVPERACASEEVPTLTYEERVGFKKSRDVFGLDFGTTSAKQPTQPASELPSGRLFHAAAVISDAMYIFGGTVDNNIRSGEMYRFQFSCYPKCTLHEDYGRLWESRQFCDVEFVLGEKEECVQGHVAIVTARSRWLRRKITQARERLAQKLEQEAAPVPREAPGVAAGGARPPLLHVAIREAEARPFEVLMQFLYTDKIKYPRKGHVEDVLLIMDVYKLALSFQLCRLEQLCRQYIEASVDLQNVLVVCESAARLQLSQLKEHCLNFVVKESHFNQVIMMKEFERLSSPLIVEIVRRKQQPPPRTPLDQPVDIGTSLIQDMKAYLEGAGAEFCDITLLLDGHPRPAHKAILAARSSYFEAMFRSFMPEDGQVNISIGEMVPSRQAFESMLRYIYYGEVNMPPEDSLYLFAAPYYYGFYNNRLQAYCKQNLEMNVTVQNVLQILEAADKTQALDMKRHCLHIIVHQFTKVSKLPTLRSLSQQLLLDIIDSLASHISDKQCAELGADI
notes: Expressed in HEK 293T, HeLa or U87 cells; used as cell lysate; also called LZTR1 wild type-FLAG; LZTR1 WT; not shown: FLAG tag at the C-terminus
binds: all assays above
